Measurements taken from PMC3830487, “A DELLA gene, RhGAI1, is a direct target of EIN3 and mediates ethylene-regulated rose petal cell expansion via repressing the expression of RhCesA2”.

What was measured:
[1] = target: T1, RhEIN3-3 (N-terminal fragment with DNA-binding domain) (rose, UniProt M9XFM8 141-356); assay: competition; mutated competitor vs biotin-labelled N1; EMSA per Wang et al. 2011, LightShift chemiluminescent kit (Pierce); 1 ug recombinant protein, 2 nM biotin-labelled probe; buffer, salt, pH and temperature not; details: tags: GST (pGEX-2T), chain copies: 2
T1 sequence: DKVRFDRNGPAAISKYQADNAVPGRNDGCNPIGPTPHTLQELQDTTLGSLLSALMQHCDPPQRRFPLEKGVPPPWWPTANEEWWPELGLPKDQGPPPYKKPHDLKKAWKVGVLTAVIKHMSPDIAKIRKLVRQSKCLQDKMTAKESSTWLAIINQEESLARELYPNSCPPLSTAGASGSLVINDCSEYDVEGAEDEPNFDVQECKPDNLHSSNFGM

[2] = target: T2, RhGAI1 (C-terminal fragment with binding domain) (rose, UniProt M9XGL2 238-618); assay: competition; mutated competitor vs biotin-labelled N3; EMSA per Wang et al. 2011, LightShift chemiluminescent kit (Pierce); 1 ug recombinant protein, 2 nM biotin-labelled probe; buffer, salt, pH and temperature not; details: tags: GST (pGEX-2T)
T2 sequence: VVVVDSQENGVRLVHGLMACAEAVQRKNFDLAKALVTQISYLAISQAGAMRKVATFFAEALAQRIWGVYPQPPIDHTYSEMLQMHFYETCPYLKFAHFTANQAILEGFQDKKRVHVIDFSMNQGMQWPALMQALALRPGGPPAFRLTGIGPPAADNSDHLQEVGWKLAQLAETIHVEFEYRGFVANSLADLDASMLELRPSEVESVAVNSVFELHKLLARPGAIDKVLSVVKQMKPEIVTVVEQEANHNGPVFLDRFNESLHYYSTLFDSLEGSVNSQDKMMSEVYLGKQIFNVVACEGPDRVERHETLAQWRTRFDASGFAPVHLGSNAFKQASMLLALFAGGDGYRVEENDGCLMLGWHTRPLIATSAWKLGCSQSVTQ

[3] = target: T1, RhEIN3-3 (N-terminal fragment with …); assay: EMSA; competed by unlabelled probe; EMSA per Wang et al. 2011, LightShift chemiluminescent kit (Pierce); 1 ug recombinant protein, 2 nM biotin-labelled probe; buffer, salt, pH and temperature not; details: tags: GST (pGEX-2T), chain copies: 2, label: biotin, blunt
[4] = target: T2, RhGAI1 (C-terminal fragment with …); assay: as above; details: tags: GST (pGEX-2T), label: biotin, blunt

B1: proRhGAI1 mutated probe (dsDNA)
DNA 1: CAGTCACGTTTTATACTCAGTAAGAGGTATTAAAATTCTAGAG
DNA 2: CTCTAGAATTTTAATACCTCTTACTGAGTATAAAACGTGACTG
Q: Does B1 bind [1]?
A: Result: no binding

B2: proRhCesA2 mutated probe (dsDNA)
DNA 1: GCAGAGGGCTGACTCAGTCGGTGGAGATTT
DNA 2: AAATCTCCACCGACTGAGTCAGCCCTCTGC
Q: Does B2 bind [2]?
A: Result: no binding

B3: proRhGAI1 probe (dsDNA)
DNA 1: CGTTTTATACTAATTCAAAGGTATTAA
DNA 2: TTAATACCTTTGAATTAGTATAAAACG
Q: Does B3 bind [3]?
A: Result: binds

B4: proRhCesA2 probe (dsDNA)
DNA 1: GCAGAGGGCTAATTTAGTCGGTGGAGAT
DNA 2: ATCTCCACCGACTAAATTAGCCCTCTGC
Q: Does B4 bind [4]?
A: Result: binds
